# Source: PMC7610489
# Target: P4-FAM, N-terminally fluorescein-labelled P4 peptide (Streptococcus cristatus)
# Experiment: MST
row,Substance,Kd [µM]
1,"RagAB complex purified from wild-type P. gingivalis W83, 8xHis-tag on the C terminus of RagB",2
2,RagAB from P. gingivalis ATCC 33277 (complex),0.2
